Patent US20200140551A1

Tests used:
[1] = target: cynomolgus ICOS (cynomolgus); test: Biacore (SPR), cyno ICOS; format not described
human ICOS (human) = human ICOS (human) (UniProt Q9Y6W8); test: Biacore (SPR), human ICOS; format not described
human ICOS (human), sequence (Q9Y6W8 21-140 limits assumed): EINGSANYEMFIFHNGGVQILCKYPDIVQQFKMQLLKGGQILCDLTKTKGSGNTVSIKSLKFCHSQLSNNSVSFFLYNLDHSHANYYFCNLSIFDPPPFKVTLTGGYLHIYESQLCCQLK

cynomolgus ICOS (cynomolgus), sequence (A0A2K5 entry or part of it limits assumed): as the sequence (Q9Y6W8 21-140 limits assumed) above, with H81R counted along it

Kd [1]: 9.3 nM
Kd (human ICOS (human)): 17 nM
B1: murine anti-human ICOS mAb clone 314.8 (antibody, from another filing, V domains shown)
VH: QVQLQQPGTELMKPGASVKLSCKASGYTFTTYWMHWVKQRPGQGLEWIGEIDPSDSYVNYNQNFKGKATLTVDKSSSTAYIQLSSLTSEDSAVYFCARSPDYYGTSLAWFDYWGQGTLVTVST
VL: DIVMTQAAPSVPVTPGESVSISCRSSKSPLHSNGNIYLYWFLQRPGQSPQLLIYRMSNLASGVPDRFSGSGSGTTFTLKISRVEAEDVGVYYCMQHLEYPYTFGGGTKLEIK
